Results: article doi:10.1101/245167 (bioRxiv, 2018)

B1: Ska3 (as subunit of the wild-type Ska complex) (natural protein)
chain: MDPIRSFCGKLRSLASTLDCETARLQRALDGEESDFEDYPMRILYDLHSEVQTLKDDVNILLDKARLENQEGIDFIKATKVLMEKNSMDIMKIREYFQKYGYSPRVKKNSVHEQEAINSDPELSNCENFQKTDVKDDLSDPPVASSCISEKSPRSPQLSDFGLERYIVSQVLPNPPQAVNNYKEEPVIVTPPTKQSLVKVLKTPKCALKMDDFECVTPKLEHFGISEYTMCLNEDYTMGLKNARNNKSEEAIDTESRLNDNVFATPSPIIQQLEKSDAEYTNSPLVPTFCTPGLKIPSTKNSIALVSTNYPLSKTNSSSNDLEVEDRTSLVLNSDTCFENLTDPSSPTISSYENLLRTPTPPEVTKIPEDILQLLSKYNSNLATPIAIKAVPPSKRFLKHGQNIRDVSNKEN

Assays:
Assay in all cases: cross-linking
[1] = target: T1, Hec1 (as subunit of the wild-type Ndc80 complex) (human, UniProt O14777 1-642)
T1 sequence: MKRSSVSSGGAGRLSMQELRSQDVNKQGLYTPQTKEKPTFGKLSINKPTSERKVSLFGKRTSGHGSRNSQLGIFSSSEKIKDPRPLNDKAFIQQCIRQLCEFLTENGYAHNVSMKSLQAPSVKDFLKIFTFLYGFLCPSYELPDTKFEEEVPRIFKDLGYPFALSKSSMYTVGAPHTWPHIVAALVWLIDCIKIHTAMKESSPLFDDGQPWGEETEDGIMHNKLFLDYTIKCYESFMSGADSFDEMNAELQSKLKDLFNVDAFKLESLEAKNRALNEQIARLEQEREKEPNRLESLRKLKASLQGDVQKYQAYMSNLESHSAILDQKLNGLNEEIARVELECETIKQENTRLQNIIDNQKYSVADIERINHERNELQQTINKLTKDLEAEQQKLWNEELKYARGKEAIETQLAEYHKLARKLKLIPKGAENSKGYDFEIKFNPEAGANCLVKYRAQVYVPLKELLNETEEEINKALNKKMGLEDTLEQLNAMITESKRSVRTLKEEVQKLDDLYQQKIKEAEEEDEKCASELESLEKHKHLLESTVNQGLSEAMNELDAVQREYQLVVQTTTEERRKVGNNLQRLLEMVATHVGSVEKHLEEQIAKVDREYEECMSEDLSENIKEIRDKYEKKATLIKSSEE

[2] = target: T2, Nuf2 (as subunit of the wild-type Ndc80 complex) (human, UniProt Q9BZD4 1-464)
T2 sequence: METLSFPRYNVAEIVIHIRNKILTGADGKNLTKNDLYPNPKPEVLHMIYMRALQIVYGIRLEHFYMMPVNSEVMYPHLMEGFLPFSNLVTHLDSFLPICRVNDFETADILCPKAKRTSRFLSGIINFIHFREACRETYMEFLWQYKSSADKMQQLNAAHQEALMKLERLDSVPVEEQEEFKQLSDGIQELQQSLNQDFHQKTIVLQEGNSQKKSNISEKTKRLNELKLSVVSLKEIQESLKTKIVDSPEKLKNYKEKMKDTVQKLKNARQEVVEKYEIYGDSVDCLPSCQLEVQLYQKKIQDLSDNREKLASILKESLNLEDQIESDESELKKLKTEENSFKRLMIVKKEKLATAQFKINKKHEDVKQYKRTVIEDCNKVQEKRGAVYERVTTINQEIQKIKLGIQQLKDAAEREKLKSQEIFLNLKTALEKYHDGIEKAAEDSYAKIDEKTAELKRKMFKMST

[3] = target: human Ndc80 complex (Hec1, Nuf2, Spc24-His, Spc25), wild type (human, UniProt O14777;Q9BZD4;Q8NBT2;Q9HBM1)
[4] = target: B1

B1: binds [1]; binds [2].

B2: Ska complex^(Ska1 ΔMTBD) (full length Ska2 and Ska3 with Ska1 residues 1-131), without His-tag (complex)
chain 1: MASSDLEQLCSHVNEKIGNIKKTLSLRNCGQEPTLKTVLNKIGDEIIVINELLNKLELEIQYQEQTNNSLKELCESLEEDYKDIEHLKENVPSHLPQVTVTQSCVKGSDLDPEEPIKVEEPEPVKKPPKEQ
chain 2: MEAEVDKLELMFQKAESDLDYIQYRLEYEIKTNHPDSASEKNPVTLLKELSVIKSRYQTLYARFKPVAVEQKESKSRICATVKKTMNMIQKLQKQTDLELSPLTKEEKTAAEQFKFHMPDL
chain 3: MDPIRSFCGKLRSLASTLDCETARLQRALDGEESDFEDYPMRILYDLHSEVQTLKDDVNILLDKARLENQEGIDFIKATKVLMEKNSMDIMKIREYFQKYGYSPRVKKNSVHEQEAINSDPELSNCENFQKTDVKDDLSDPPVASSCISEKSPRSPQLSDFGLERYIVSQVLPNPPQAVNNYKEEPVIVTPPTKQSLVKVLKTPKCALKMDDFECVTPKLEHFGISEYTMCLNEDYTMGLKNARNNKSEEAIDTESRLNDNVFATPSPIIQQLEKSDAEYTNSPLVPTFCTPGLKIPSTKNSIALVSTNYPLSKTNSSSNDLEVEDRTSLVLNSDTCFENLTDPSSPTISSYENLLRTPTPPEVTKIPEDILQLLSKYNSNLATPIAIKAVPPSKRFLKHGQNIRDVSNKEN
B2: binds [3].

B3: Spc24-His (as subunit of the wild-type Ndc80 complex) (natural protein)
chain: MAAFRDIEEVSQGLLSLLGANRAEAQQRRLLGRHEQVVERLLETQDGAEKQLREILTMEKEVAQSLLNAKEQVHQGGVELQQLEAGLQEAGEEDTRLKASLLQLTRELEELKEIEADLERQEKEVDEDTTVTIPSAVYVAQLYHQVSKIEWDYECEPGMVKGIHHGPSVAQPIHLDSTQLSRKFISDYLWSLVDTEW
B3: binds [4].

B4: Spc25 (as subunit of the wild-type Ndc80 complex) (natural protein)
chain: MVEDELALFDKSINEFWNKFKSTDTSCQMAGLRDTYKDSIKAFAEKLSVKLKEEERMVEMFLEYQNQISRQNKLIQEKKDNLLKLIAEVKGKKQELEVLTANIQDLKEEYSRKKETISTANKANAERLKRLQKSADLYKDRLGLEIRKIYGEKLQFIFTNIDPKNPESPFMFSLHLNEARDYEVSDSAPHLEGLAEFQENVRKTNNFSAFLANVRKAFTATVYN
B4: binds [4].
